Measurements: patent US20240218057A1

How the values were obtained:
Experiment in all cases: cell-based or functional assay
[1] = target: SARS-COV-2 spike protein A475V on pseudotyped virus (SARS-CoV-2) (UniProt P0DTC2)
[2] = target: SARS-COV-2 spike protein R683G on pseudotyped virus (SARS-CoV-2) (UniProt P0DTC2)
[3] = target: SARS-COV-2 spike protein K417N on pseudotyped virus (SARS-CoV-2) (UniProt P0DTC2)
[4] = target: SARS-COV-2 spike protein E484K (R683G) on pseudotyped virus (SARS-CoV-2) (UniProt P0DTC2)
[5] = target: SARS-COV-2 spike protein N501Y on pseudotyped virus (SARS-CoV-2) (UniProt P0DTC2)
[6] = target: SARS-COV-2 spike protein R346S on pseudotyped virus (SARS-CoV-2) (UniProt P0DTC2)
[7] = target: SARS-COV-2 spike protein N440K on pseudotyped virus (SARS-CoV-2) (UniProt P0DTC2)
[8] = target: SARS-CoV-2 spike protein N440K (pseudovirus) (SARS-CoV-2) (UniProt P0DTC2)
[9] = target: SARS-CoV-2 spike protein E484K (R683G) (pseudovirus) (SARS-CoV-2) (UniProt P0DTC2)
[10] = target: SARS-CoV-2 spike protein Q493R (pseudovirus) (SARS-CoV-2) (UniProt P0DTC2)
[11] = target: SARS-CoV-2 spike protein N501Y (pseudovirus) (SARS-CoV-2) (UniProt P0DTC2)
[12] = target: SARS-CoV-2 spike protein A475V (pseudovirus) (SARS-CoV-2) (UniProt P0DTC2)
[13] = target: SARS-CoV-2 spike protein R683G (pseudovirus) (SARS-CoV-2) (UniProt P0DTC2)
[14] = target: SARS-CoV-2 spike protein K417N (pseudovirus) (SARS-CoV-2) (UniProt P0DTC2)
[15] = target: SARS-CoV-2 spike protein R346S (pseudovirus) (SARS-CoV-2) (UniProt P0DTC2)
[16] = target: SARS-CoV-2 spike protein K417N/E484K/N501Y (R683G) (pseudovirus) (SARS-CoV-2) (UniProt P0DTC2)

C121 (antibody)
neutralization IC50 [1]: 0.00253 µg/mL | neutralization IC90 [1]: 0.0183 µg/mL | neutralization IC50 [2]: 0.00167 µg/mL | neutralization IC90 [2]: 0.0108 µg/mL | neutralization IC50 [3]: 0.0031 µg/mL | neutralization IC90 [3]: 0.0163 µg/mL | neutralization IC50 [4]: > 1 µg/mL | neutralization IC90 [4]: > 1 µg/mL | neutralization IC50 [5]: 0.00375 µg/mL | neutralization IC90 [5]: 0.0189 µg/mL | neutralization IC50 [6]: 0.00363 µg/mL | neutralization IC90 [6]: 0.0156 µg/mL | neutralization IC50 [7]: 0.0035 µg/mL | neutralization IC90 [7]: 0.0182 µg/mL

C135 (antibody)
neutralization IC50 [1]: 0.00461 µg/mL | neutralization IC90 [1]: 0.0272 µg/mL | neutralization IC50 [2]: 0.00271 µg/mL | neutralization IC90 [2]: 0.0228 µg/mL | neutralization IC50 [3]: 0.00348 µg/mL | neutralization IC90 [3]: 0.0147 µg/mL | neutralization IC50 [4]: 0.00199 µg/mL | neutralization IC90 [4]: 0.02 µg/mL | neutralization IC50 [5]: 0.0129 µg/mL | neutralization IC90 [5]: 0.141 µg/mL | neutralization IC50 [6]: > 1 µg/mL | neutralization IC90 [6]: > 1 µg/mL | neutralization IC50 [7]: > 1 µg/mL | neutralization IC90 [7]: > 1 µg/mL

C144 (antibody)
IC50 neutralization [8]: 0.0024 µg/mL | IC90 neutralization [8]: 0.0135 µg/mL | IC50 neutralization [9]: > 1 µg/mL | IC90 neutralization [9]: > 1 µg/mL | neutralization IC50 [1]: 0.00319 µg/mL | neutralization IC90 [1]: 0.0162 µg/mL | neutralization IC50 [2]: 0.00123 µg/mL | neutralization IC90 [2]: 0.00666 µg/mL | neutralization IC50 [3]: 0.00184 µg/mL | neutralization IC90 [3]: 0.0115 µg/mL | neutralization IC50 [4]: > 1 µg/mL | neutralization IC90 [4]: > 1 µg/mL | IC50 neutralization [10]: > 1 µg/mL | IC90 neutralization [10]: > 1 µg/mL | neutralization IC50 [5]: 0.00305 µg/mL | neutralization IC90 [5]: 0.0189 µg/mL | neutralization IC50 [6]: 0.00341 µg/mL | neutralization IC90 [6]: 0.0167 µg/mL | IC50 neutralization [11]: 0.003 µg/mL | IC90 neutralization [11]: 0.0189 µg/mL | IC50 neutralization [12]: 0.0032 µg/mL | IC90 neutralization [12]: 0.0162 µg/mL | IC50 neutralization [13]: 0.0012 µg/mL | IC90 neutralization [13]: 0.0067 µg/mL | IC50 neutralization [14]: 0.0018 µg/mL | IC90 neutralization [14]: 0.0115 µg/mL | IC50 neutralization [15]: 0.0034 µg/mL | IC90 neutralization [15]: 0.0167 µg/mL | neutralization IC50 [7]: 0.0024 µg/mL | neutralization IC90 [7]: 0.0135 µg/mL | IC50 neutralization [16]: > 1 µg/mL | IC90 neutralization [16]: > 1 µg/mL
